According to patent publication US20190218302A1, “ANTI-CANCER COMBINATION TREATMENT” (PROBIOCON GMBH, priority 2016, published 2019):

Legend:
[1] = test system: RANK expressing PBMC of a patient suffering from AML (94% blasts); assay: Chemotherapy resistance model, PBMC of an AML patient, flow cytometry (7AAD and Annexin-V-PE); type: cell-based, human
Experimental: FIG. 1: RANKL mediates resistance of malignant cells to chemotherapeutic treatment. Blood of a patient suffering from acute myeloid leukemia (AML) containing 94% blasts (leukemic cells) was obtained at time of diagnosis prior to treatment and peripheral blood mononuclear cells (PBMC) were isolated by density gradient centrifugation. PBMC were cultured in the presence or absence of doxorubicin (dox, 1 μM) and/or soluble RANKL (sRANKL, 500 ng/ml) as indicated.
RANK expressing PBMC of a patient suffering from AML (French-American-British (FAB) classification: M4; 94% peripheral blood blasts) were subjected to a model of chemotherapyresistance (FIG. 1). To this end, patient blood was obtained at time of diagnosis prior to treatment and PBMC were isolated by density gradient centrifugation. […] Since AML cells of the FAB type M4 resemble monocyte-like cells, this experiment is in line with studies in healthy monocytes showing that sRANKL (Seshasayee et al. 2004, Jour Biol Chem, 279(29):30202-9) acts as a pro-survival factor, likely due to upregulation of anti-apoptotic BCL-2 proteins.

[2] = test system: MCF10A breast cancer cells; assay: MCF10A breast cancer cells with sRANKL, Denosumab and paclitaxel, flow cytometry with 7AAD; type: cell-based, human; conditions: 48 h, paclitaxel 10 nM added after 24 h
Experimental: FIG. 2: Blockade of RANKL by Denosumab overcomes resistance to chemotherapeutic treatment. MCF10A breast tumor cells were cultured for 48 h in the presence or absence of sRANKL (100 ng/ml) and/or Denosumab (20 μg/ml) as indicated. After the first 24 h of culture, paclitaxel (10 nM) was added where indicated. Then the percentage of living and dead cells was determined using flow cytometry with 7AAD.
To this end, it was evaluated if RANKL-induced chemoresistance could be overcome by application of a RANKL-inhibitor in the form of the approved RANKL antibody Denosumab. Therefore, MCF10A breast cancer cells were cultured for 48 h in the presence or absence of sRANKL (100 ng/ml, Immunotools) and Denosumab (20 μg/ml, Amgen) as indicated. After 24 h of culture, paclitaxel (10 nM, Taxomedac) representing a first line breast cancer therapeutic agent, was added where indicated.

[3] = test system: A2780 ovarian cancer cells; assay: Viability of tumor cells cultured with platelets and Denosumab, ATP content (CellTiter-Glo); type: cell-based, human; conditions: platelets plus Denosumab, 96 h; doxorubicin for the last 24 h
Experimental: (§1) A2780 ovarian cancer cells (left) and MCF10A breast cancer cells (right) were employed as model to study the influence of RANKL and its neutralization on chemotherapy resistance. To this end, 30,000 tumor cells were cultured in the presence or absence of platelets and Denosumab for 96 h. The indicated concentrations of doxorubicin (left) or paclitaxel (right) were added for the last 24 h. Then cell viability was determined by analysis of ATP content of each sample (CellTiter-Glo assay, Promega). Values obtained with untreated tumor cells were set to 1.
(§2) To assess the role of pRANKL in the context of systemic treatment, the viability of ovarian and breast cancer cells was analyzed. Cells were incubated with human platelets in the presence or absence of Denosumab to neutralize pRANKL which mimics the situation in cancer patients. Presence of platelets enhanced the viability/cellular activity of tumor cells already without chemotherapeutic treatment, and the same was observed upon chemotherapeutic treatment.

[4] = test system: MCF10A breast cancer cells; assay: as above; type: cell-based, human; conditions: platelets plus Denosumab, 96 h; paclitaxel for the last 24 h
Experimental: as §1, §2

[5] = test system: SKBR3 breast cancer cell line; conditions: Schramek et al., Nature 2010; cited from earlier work
melanoma metastasis = conditions: Jones et al., Nature 2006, cited from earlier work

## COc1cccc2c1C(=O)c1c(O)c3c(c(O)c1C2=O)C[C@@](O)(C(=O)CO)C[C@@H]3O[C@H]1C[C@H](N)[C@H](O)[C@H](C)O1 [doxorubicin, reference compound]
[1]; doxorubicin 1 μM, 48 h of treatment
  percentage of early apoptotic and dead cells compared to the control group: greatly enhanced
[1]; ex vivo cancer cell assay, doxorubicin applied
  amount of viable AML cells: reduced

## Denosumab: fully human IgG2 monoclonal antibody specific to RANKL (Amgen); heavy chain SEQ ID 1, light chain SEQ ID 2
[2]; Denosumab 20 μg/ml with sRANKL 100 ng/ml
  effects of chemotherapeutic treatment upon RANKL neutralization (chemosensitivity): restores and even increases the effects of chemotherapeutic treatment
[3]
  protective effect of platelets on tumor cell viability: substantially reduced
[4]
  protective effect of platelets on tumor cell viability: substantially reduced

B1: sRANKL: recombinant human soluble RANKL, Immunotools, Germany (protein)
chain: EKAMVDGSWLDLAKRSKLEAQPFAHLTINATDIPSGSHKVSLSSWYHDRGWAKISNMTFSNGKLIVNQDGFYYLYANICFRHHETSGDLATEYLQLMVYVTKTSIKIPSSHTLMKGGSTKYWSGNSEFHFYSINVGGFFKLRSGEEISIEVSNPSLLDPDQDATYFGAFKVRDID
[1]; ex vivo cancer cell assay, doxorubicin plus sRANKL
  effect of doxorubicin on the amount of viable AML cells in the presence of sRANKL: neutralized
[1]; sRANKL 500 ng/ml added to doxorubicin 1 μM, 48 h
  effect of chemotherapeutic treatment when sRANKL was added: markedly reduced
[2]; sRANKL 100 ng/ml
  protection of malignant cells from the effects of chemotherapeutic treatment: protects the malignant cells from the effects of chemotherapeutic treatment
[5]
  protection from apoptosis induced by doxorubicin: protects the SKBR3 breast cancer cell line from apoptosis induced by doxorubicin

B2: osteoprotegerin: used for in vivo neutralization of RANKL in a mouse model of melanoma metastasis (protein, UniProt O00300 22-401, looked up)
Tumor necrosis factor …: ETFPPKYLHYDEETSHQLLCDKCPPGTYLKQHCTAKWKTVCAPCPDHYYTDSWHTSDECLYCSPVCKELQYVKQECNRTHNRVCECKEGRYLEIEFCLKHRSCPPGFGVVQAGTPERNTVCKRCPDGFFSNETSSKAPCRKHTNCSVFGLLLTQKGNATHDNICSGNSESTQKCGIDVTLCEEAFFRFAVPTKFTPNWLSVLVDNLPGTKVNAESVERIKRQHSSQEQTFQLLKLWKHQNKDQDIVKKIIQDIDLCENSVQRHIGHANLTFEQLRSLMESLPGKKVGAEDIEKTIKACKPSDQILKLLSLWRIKNGDQDTLKGLMHALKHSKTYHFPKTVTQSLKKTIRFLHSFTMYKLYQKLFLEMIGNQVQSVKISCL
Melanoma metastasis
  protection from paralysis: complete protection from paralysis
Melanoma metastasis; in bones, but not in other organs
  tumor burden in bones: marked reduction in tumor burden in bones
